Test results taken from publication PMC4446944, “The maize cytochrome P450 CYP79A61 produces phenylacetaldoxime and indole-3-acetaldoxime in heterologous systems and might contribute to plant defense and auxin formation” (BMC Plant Biology, 2015).

How the values were obtained:
[1] = substrate: N[C@@H](Cc1c[nH]c2ccccc12)C(=O)O; assay: yeast microsomes, LC-MS/MS of (E/Z)-indole-3-acetaldoxime formed; assay type: biochemical, Zea mays; conditions: 1 mM NADPH, 75 mM sodium phosphate pH 7.0, 25 °C, 30 min, microsomes with Arabidopsis CPR1
[2] = substrate: N[C@@H](Cc1ccccc1)C(=O)O; assay: yeast microsomes, LC-MS/MS of (E/Z)-phenylacetaldoxime formed; assay type: biochemical, Zea mays; conditions: 1 mM NADPH, 75 mM sodium phosphate pH 7.0, 25 °C, 30 min, microsomes with Arabidopsis CPR1

B1: CYP79A61 (Zea mays subsp. mays) (protein)
chain: MVSSPQANKFPLRKQISSPSSSCMAPHVLLVLVILLYLVRTLRPWRSRRNSTCCTPSLPPGPVPWPVVGNLPEMMLSDKPAFHWIHHIMKEAGTDIACIKLGGVHVIPISCPKIALEVLSNQDANFASRPLTFASKTFSTGYRDAAMSHCGDHWKKMRRVLASEIVCPSRHRWLHDKRADEADNLTRYVYNLATKAGSSGAVDVRHIARHYCGNVVRRLMFNTRYFGKPQPDSGPGPLEVQHVDAVFTSLGLLYSFCVSDYLPWLLGLDLDGHEKMVKEANERVTRLHDAVIDERWRLWKSGERRELEDFLDVLIMLKDAEAGRPVLSIEEVKALLMDITFASMDNPSNAVEWALAEMVNNPTMLKKAVDEIDSVVGQERLVQEHDIPRLNYTKACIREAFRLHPVAPFNVPHVAVADATVAGYRIPKGSHVILSRTGLGRNPDVWDDPLRFDPERHIPLSPEMEVSLVERDLRFISFSTGRRGCIAAALGTDMTIMLFGRLLQGFSWSKMTGVAAIDLSESRHNTFMARPLVLQAKPRLPAHLYPGILLCK
notes: complete open reading frame, untagged as far as told, pESC-Leu2d, Saccharomyces cerevisiae WAT11 microsomes with Arabidopsis CPR1
What does the source list for B1?
Km [1]: 150.2 ± 9.2 µM; Km [2]: 117.2 ± 6.0 µM
